Tests used:
[1] = target: native RPE1 extracted from Chlamydomonas reinhardtii cell cultures (Chlamydomonas reinhardtii (endogenous in strain D66)); test: SEC
[2] = target: recombinant ribulose-5-phosphate-3-epimerase isoform 1 from Chlamydomonas reinhardtii (CrRPE1) (Chlamydomonas reinhardtii); test: SEC-SAXS
[3] = target: recombinant ribulose-5-phosphate-3-epimerase isoform 1 from Chlamydomonas reinhardtii (CrRPE1) (Chlamydomonas reinhardtii); test: SEC
[4] = target: recombinant ribulose-5-phosphate-3-epimerase isoform 1 from Chlamydomonas reinhardtii (CrRPE1) (Chlamydomonas reinhardtii); test: crystal structure

Substance | stoichiometry N [1] [subunits] | stoichiometry N (subunits per particle) [2] | stoichiometry N [3] [subunits] | stoichiometry N [4] [subunits]
native RPE1 extracted from Chlamydomonas reinhardtii cell cultures (enzyme) | 6 |  |  | 
recombinant ribulose-5-phosphate-3-epimerase isoform 1 from Chlamydomonas reinhardtii (CrRPE1) (enzyme) |  | 6 | 5 | 6

Source: doi:10.1101/2022.09.29.510120
